# B1: MexT regulatory domain (domain or fragment, Pseudomonas aeruginosa, UniProt Q9I0Z0 95-304, looked up)
# chain: PATSTAVFRIGLSDDVEFGLLPPLLRRLRAEAPGIVLVVRRANYLLMPNLLASGEISVGVSYTDELPANAKRKTVRRSKPKILRADSAPGQLTLDDYCARPHALVSFAGDLSGFVDEELEKFGRKRKVVLAVPQFNGLGTLLAGTDIIATVPDYAAQALIAAGGLRAEDPPFETRAFELSMAWRGAQDNDPAERWLRSRISMFIGDPDSL
# Target: the molecule itself
# Assay: SEC-MALS
protein,measurement,value
B1,stoichiometry N,2

# Source: publication PMC6939650 (Molecules and Cells, 2019)
